Data from patent publication US5804604, “Tat-derived transport polypeptides and fusion proteins” (Biogen, Inc., dated 1998).

B1: TxHE2CCSS (tat37-72 chemically cross-linked to E2.123CCSS) (other)
chain: MVPDTGNPCHTTKLLHRDSVDSAPILTAFNSSHKGRINCNSNTTPIVHLKGDANTLKSLRYRFKKHSTLYTAVSSTWHWTGHNVKHKSAIVTLTYDSEWQRDQFLSQVKIPKTITVSTGFMSI
peptide: CFITKALGISYGRKKRRQRRRPPQGSQTHQVSLSKQ
modifications: cysteine cross-linked through bismaleimidohexane (BMH) to tat37-72; 1 transport molecule per E2 repressor homodimer; cysteine coupled to bismaleimidohexane (BMH)
B2: HE2.123 (unconjugated E2.123 repressor protein) (other)
chain: MVPDTGNPCHTTKLLHRDSVDSAPILTAFNSSHKGRINCNSNTTPIVHLKGDANTLKCLRYRFKKHCTLYTAVSSTWHWTGHNVKHKSAIVTLTYDSEWQRDQFLSQVKIPKTITVSTGFMSI
B3: JB106 (other)
chain: MYGRKKRRQRRRPPDTGNPCHTTKLLHRDSVDSAPILTAFNSSHKGRINCNSNTTPIVHLKGDANTLKCLRYRFKKHCTLYTAVSSTWHWTGHNVKHKSAIVTLTYDSEWQRDQFLSQVKIPKTITVSTGFMSI

target: full-length HPV-16 E2 protein (E2 transactivator expressed from plasmid pAHE2) (human papillomavirus strain 16 (HPV-16), UniProt P03120); experiment: cell-based or functional assay

Going from B1 to B2, the “% repression (E2 repression assay, COS7 cells, without chloroquine)” value falls from 69.4 % repression to 0.3 % repression.

With B3 the “% repression (E2 repression assay, COS7 cells, without chloroquine)” value was 94.3 % repression.
